Changes are numbered by the printed parent chain.

Assay [1] deals with T1, cynomolgus monkey CD3 expressed on primary T cells (cynomolgus monkey, UniProt Q95LI5 22-198; Q95LI8 22-171; Q95LI7 23-181).
T1 construct: whole, on cells; CD3 complex on purified cynomolgus monkey T cells; also called cyno CD3
As to the kind of experiment: flow cytometry, 25 nM, cyno primary T cells. The method, boiled down: (§1)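 Binding readout: MFI divided by isotype-control MFI (fold over isotype), positive at ≥10. Cells were stained with 25 nM antibody, 30 min, 4° C, in PBS/2% FBS before flow cytometry.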
In general terms: A flow cytometer gives signals particle by particle.

Assay [2] has as its target T2, human CD3 expressed on cells (human, UniProt P07766 23-207; P04234 22-171; P09693 23-182).
T2 construct: whole, on cells; CD3 complex on Jurkat cells and on human primary T cells
The experiment in a line: flow cytometry, 25 nM. The method, boiled down: as §1

T2 sequence (P07766 23-207, chain 1 of 3): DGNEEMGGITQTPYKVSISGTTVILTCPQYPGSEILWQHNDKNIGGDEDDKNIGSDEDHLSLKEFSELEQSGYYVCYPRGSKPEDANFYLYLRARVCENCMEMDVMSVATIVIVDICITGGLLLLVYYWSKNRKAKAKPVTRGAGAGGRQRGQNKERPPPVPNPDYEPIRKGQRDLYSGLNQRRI
T2 sequence (P04234 22-171, chain 2 of 3): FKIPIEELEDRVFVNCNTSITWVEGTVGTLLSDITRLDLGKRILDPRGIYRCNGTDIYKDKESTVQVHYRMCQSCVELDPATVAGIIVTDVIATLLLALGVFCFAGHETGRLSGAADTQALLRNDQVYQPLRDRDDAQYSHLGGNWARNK
T2 sequence (P09693 23-182, chain 3 of 3): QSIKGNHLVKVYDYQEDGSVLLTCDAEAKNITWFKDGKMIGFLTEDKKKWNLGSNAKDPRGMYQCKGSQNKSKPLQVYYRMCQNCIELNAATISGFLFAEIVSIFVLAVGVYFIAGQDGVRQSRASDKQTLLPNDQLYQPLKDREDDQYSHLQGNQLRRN
T1 sequence (Q95LI5 22-198, chain 1 of 3): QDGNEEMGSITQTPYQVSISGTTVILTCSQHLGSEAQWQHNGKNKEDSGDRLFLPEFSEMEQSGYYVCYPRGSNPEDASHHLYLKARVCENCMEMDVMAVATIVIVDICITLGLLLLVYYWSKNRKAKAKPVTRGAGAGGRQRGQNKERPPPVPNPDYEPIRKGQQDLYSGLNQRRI
T1 sequence (Q95LI8 22-171, chain 2 of 3): as the sequence (P04234 22-171, chain 2 of 3) above, with I5V, N15K, I20V, S32T, D33N, I34N, T64A, S74N, V83L, H141R counted along it
T1 sequence (Q95LI7 23-181, chain 3 of 3): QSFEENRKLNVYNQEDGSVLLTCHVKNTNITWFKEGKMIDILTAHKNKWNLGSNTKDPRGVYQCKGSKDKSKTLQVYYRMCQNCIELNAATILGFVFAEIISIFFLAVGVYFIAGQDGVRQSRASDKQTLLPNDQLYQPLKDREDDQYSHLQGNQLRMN

B1: mAb 102 (antibody, V domains shown)
VH: QVQLVESGGGVVQPGRSLRLSCAASGFSFRSYGMHWVRQAPGKGLEWVSVISYDGGNKYYADSVKGRFTISRDNSKNTLFLQMKSLRAEDTALYYCAKGGGTYWRGLFEYWGQGTLVTVSS
VL: DIQLTQSPSFLSASVGDRVTITCRASQGISSYLAWYQKKPGKAPKLLIYAASTLHSGVPSRFSGGGSGTAFTLTISSLQPEDFATYYCQQLNNYPFTFGPGTKVDIK
B1: the binding result in assay [1] was “no binding (tested: FOI >=10 = positive)”. Also, in assay [2], the “Human primary T Cell Binding (FOI)” value was 98.9 FOI and the “Jurkat Cell Binding (FOI)” value came out at 101 FOI.

B2: mAb 106 (antibody, V domains shown)
VH: QVQLVESGGGVVQPGRSLRLSCAASGFTFRSYGMHWVRQAPGKGLEWVAIIWYNGNKKDYVDSVKGRFTISRDNSKNTLYLQMNSLRAEDTALYYCARGPGYNWFDPWGQGTLVTVSS
VL: DIQMTQSPPSLSASVGDRVTITCRASQRISSYLNWYQQKPGKAPKLLIYAASSLQSGVPSRFSGSGSGTDFTLTISSLQPEDFATYYCQQSDSFPLTFGGGTKVEII
Consider B2, for which the binding result in assay [1] is listed as “no binding (tested: FOI >=10 = positive)”. Also, in assay [2], the “Human primary T Cell Binding (FOI)” value came to 210 FOI and the “Jurkat Cell Binding (FOI)” value turned out to be 186 FOI.

B3: mAb 110 (antibody, V domains shown)
VH: B2 VH with T78M
VL: B2 VL with K39R, S91T
In the case of B3, the binding result in assay [1] was “no binding (tested: FOI >=10 = positive)”. Further, in assay [2], the “Human primary T Cell Binding (FOI)” value worked out at 214 FOI and the “Jurkat Cell Binding (FOI)” value was 197 FOI.

B4: mAb 111 (antibody, V domains shown)
VH: EVQLVESGGVLVKTGGSLRLSCVASGFSFKKAWMNWVRQAPGKGLEWVGRIKRNSDGGAADYAAPVKDRFTLSRDDSKNTLYLQMNSLKTEDTAVYYCTTLDSSSWYVGYYYMDVWGKGTTVTVSS
VL: DIHMTQSPSSVSASLGDRVTFTCRASQNINNWLAWYQQKPGKAPKLLIYTASSLQSGVPSRFSGSGSGTDFTLTISSLQPDDFATYYCQQAHSLPITFGQGTRLGIK
Regarding B4, the binding result in assay [1] was “no binding (tested: FOI >=10 = positive)”. In assay [2], the “Human primary T Cell Binding (FOI)” value came out at 168 FOI and the “Jurkat Cell Binding (FOI)” value came out at 160 FOI.

B5: mAb 112 (antibody, V domains shown)
VH: B4 VH with V10G, L18H, A59T, A60T, D68G, T71I
VL: B4 VL with H3Q, L15V, F21I, N28D, L46I, S53N, D81E, Y87F, G105E
Take B5: the binding result in assay [1] is “no binding (tested: FOI >=10 = positive)”. In assay [2], the “Human primary T Cell Binding (FOI)” value was 174 FOI and the “Jurkat Cell Binding (FOI)” value was 158 FOI.

B6: mAb 115 (antibody, V domains shown)
VH: B4 VH with V10G, L18H, A59T, A60T, D68G, T71I
VL: B4 VL with H3Q, L15V, F21I, N28D, L46I, S53N, D81E, Y87F, S93G, G105E
For B6, the binding result in assay [1] is “no binding (tested: FOI >=10 = positive)”. For the same molecule, in assay [2], the “Human primary T Cell Binding (FOI)” value amounted to 174 FOI and the “Jurkat Cell Binding (FOI)” value worked out at 157 FOI.

B7: mAb 116 (antibody, V domains shown)
VH: B4 VH with V10G, A59T, A60T, D68G
VL: B4 VL with H3Q, S9F, L15V, F21I, N28D, L46I, D81E, G105E
B7: in assay [1], the binding result is recorded as “no binding (tested: FOI >=10 = positive)”. Also, in assay [2], the “Human primary T Cell Binding (FOI)” value is 174 FOI and the “Jurkat Cell Binding (FOI)” value is 159 FOI.

B8: mAb 117 (antibody, V domains shown)
VH: B4 VH with V10G, S55T, A59T, A60T, D68G, W106L
VL: B4 VL with H3Q, L15V, F21I, N28D, D81E, G105E
For B8, the binding result in assay [1] is “no binding (tested: FOI >=10 = positive)”. Besides, in assay [2], the “Human primary T Cell Binding (FOI)” value was determined as 170 FOI and the “Jurkat Cell Binding (FOI)” value was found to be 155 FOI.

B9: mAb 113 (antibody, V domains shown)
VH: B4 VH with V10G, S55T, A59T, A60T, D68G
VL: B4 VL with H3Q, L15V, F21I, N28D, L46I, D81E, G105E
As to B9, the binding result in assay [1] is listed as “no binding (tested: FOI >=10 = positive)”. In addition, in assay [2], the “Human primary T Cell Binding (FOI)” value was 173 FOI and the “Jurkat Cell Binding (FOI)” value is 157 FOI.

B10: mAb 120 (antibody, V domains shown)
VH: B4 VH with V10G, S55T, A59T, D68G, N79K, Y82F, W106Y
VL: B4 VL with H3Q, L15V, F21I, N28D, S76G, D81E, G105E
With B10, the binding result in assay [1] is recorded as “no binding (tested: FOI >=10 = positive)”. Further, in assay [2], the “Human primary T Cell Binding (FOI)” value came to 167 FOI and the “Jurkat Cell Binding (FOI)” value was found to be 168 FOI.

B11: mAb 122 (antibody, V domains shown)
VH: B4 VH with V10G, S55T, A59T, D68G, N79K, W106R
VL: B4 VL with H3Q, L15V, T20I, F21I, N28D, A43V, S76G, D81E, G105E
Consider B11, for which, in assay [1], the binding result is “no binding (tested: FOI >=10 = positive)”. Also, in assay [2], the “Human primary T Cell Binding (FOI)” value is 174 FOI and the “Jurkat Cell Binding (FOI)” value is 199 FOI.

B12: mAb 114 (antibody, V domains shown)
VH: B4 VH with V10G, S55T, A59P, D68G, N79K
VL: DIQMTQSPSSVSASVGDRVIITCRASQDINNWLAWYLQRPGKAPKLLIYAASSLQSGVPSRFSGSGSGTDFTLTIGSLQPEDFATYYCQQAHSLPITFGQGTRLEIQ
Consider B12, for which, in assay [1], the binding result is on record as “no binding (tested: FOI >=10 = positive)”. In assay [2], the “Human primary T Cell Binding (FOI)” value amounted to 179 FOI and the “Jurkat Cell Binding (FOI)” value amounted to 167 FOI.

B13: mAb 101 (antibody, V domains shown)
VH: QGQLVESGGGVVQPGRSLRLSCAASGFTFRGFGMHWVRQAPGKGLEWVAIIYYDGKNKYYADSVKGRFTISRDNSKNMLYLQMNSLRAEDTAVYYCAKGGGYNWFDPWGQGTLVTVSS
VL: DIQMTQSPSSLSASVGDRVTITCRASQSISTYLNWYQQKPGKAPKLLIYSASSLQSGVPSRFSGSGSGTDFTLTISNLQPEDFAIYYCQRSYSPPFTFGPGTKLDIR
Turning to B13, the binding result in assay [1] is “no binding (tested: FOI >=10 = positive)”. For the same molecule, in assay [2], the “Human primary T Cell Binding (FOI)” value was determined as 233 FOI and the “Jurkat Cell Binding (FOI)” value was found to be 216 FOI.

B14: mAb 95 (antibody, V domains shown)
VH: B13 VH with G2A, Q3H, A23S, R30S, F32Y, I50L, Y53F, K56R, M78T, K98R
VL: DIQMTQSPSSLSASVGDRVTITCRASQSINNYLSWYQQKPGKAPKLLIYLASNLQSGVPSRFSGSGSGTDFTLTISSLQPEDFATYYCQLSYRSPFTFGPGTKVDVK
Turning to B14, the binding result in assay [1] was “no binding (tested: FOI >=10 = positive)”. In addition, in assay [2], the “Human primary T Cell Binding (FOI)” value was 206 FOI and the “Jurkat Cell Binding (FOI)” value worked out at 177 FOI.

B15: mAb 94 (antibody, V domains shown)
VH: B13 VH with G2V, Q3H, A23S, R30S, F32Y, I50L, Y53F, K56R, M78T, K98R
VL: B14 VL with N30S, S34N, N53S, S76N, T85S, R93S, K107N
For B15, the binding result in assay [1] is on record as “no binding (tested: FOI >=10 = positive)”. Moreover, in assay [2], the “Human primary T Cell Binding (FOI)” value is 174 FOI and the “Jurkat Cell Binding (FOI)” value came to 170 FOI.

B16: mAb 98 (antibody, V domains shown)
VH: QVHLVESGGDVVQPGRSLRLSCSASGFTFSGYGMHWVRQAPGKGLEWVALIYFDGRNKYYADSVKGRFTISRDNSKNTLYLQMNSLRAEDTAVYYCARGGGYNWFDPWGQGTLVTVSS
VL: B14 VL with S34N, N53S, F83L, R93S
On to B16, for which the binding result in assay [1] is reported as “no binding (tested: FOI >=10 = positive)”. Further, in assay [2], the “Human primary T Cell Binding (FOI)” value was found to be 174 FOI and the “Jurkat Cell Binding (FOI)” value came out at 181 FOI.

B17: mAb 96 (antibody, V domains shown)
VH: B16 VH with V2A, D10G, A49S
VL: B14 VL with S65N
In the case of B17, the binding result in assay [1] is recorded as “no binding (tested: FOI >=10 = positive)”. Further, in assay [2], the “Human primary T Cell Binding (FOI)” value stood at 189 FOI and the “Jurkat Cell Binding (FOI)” value is 174 FOI.

These data come from US20230295310A1 (ABCELLERA BIOLOGICS, published 2023).
